Where a chain is given by its changes, count along the chain named. One block for each molecule: values may come before it.
Experiments:
[1] = target: CDH17 on SNU16 cells (UniProt Q12864)
[2] = target: T1, CDH17 (UniProt Q12864 23-787, limits assumed)
T1 construct: also called cadherin 17
T1 sequence (looked up): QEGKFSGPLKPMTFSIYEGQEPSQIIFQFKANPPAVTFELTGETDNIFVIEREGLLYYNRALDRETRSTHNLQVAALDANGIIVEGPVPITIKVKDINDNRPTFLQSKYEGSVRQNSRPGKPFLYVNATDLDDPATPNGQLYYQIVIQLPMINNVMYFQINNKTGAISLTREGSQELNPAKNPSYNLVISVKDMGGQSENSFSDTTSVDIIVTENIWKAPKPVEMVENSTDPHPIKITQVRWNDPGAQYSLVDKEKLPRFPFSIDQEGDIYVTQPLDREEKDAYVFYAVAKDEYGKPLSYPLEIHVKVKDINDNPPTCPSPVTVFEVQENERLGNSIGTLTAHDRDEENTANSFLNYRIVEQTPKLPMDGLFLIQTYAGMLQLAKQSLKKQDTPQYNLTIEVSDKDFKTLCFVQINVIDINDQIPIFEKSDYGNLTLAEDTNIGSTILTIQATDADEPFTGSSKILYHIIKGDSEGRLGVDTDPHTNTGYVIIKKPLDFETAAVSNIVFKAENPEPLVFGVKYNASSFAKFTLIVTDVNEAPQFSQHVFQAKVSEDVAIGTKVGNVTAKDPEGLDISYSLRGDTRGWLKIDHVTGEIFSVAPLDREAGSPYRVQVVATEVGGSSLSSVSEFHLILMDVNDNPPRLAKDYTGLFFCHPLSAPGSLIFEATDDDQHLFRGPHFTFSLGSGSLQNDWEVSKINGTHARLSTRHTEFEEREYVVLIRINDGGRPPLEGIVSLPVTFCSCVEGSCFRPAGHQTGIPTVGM

[3] = target: T1, CDH17; test: method not stated; KD at pH 7.4

Molecule: isotype vedotin (Fc fusion)
cytotoxicity IC50 of the negative control (no asterisk: isotype control vedotin ADC), SNU16 (gastric) cells [1]: > 100 nM
cytotoxicity IC50 of the negative control (no asterisk: isotype control vedotin ADC), AsPC1 (PDAC) cells [2]: > 100 nM
cytotoxicity IC50 of the negative control (no asterisk: isotype control vedotin ADC), CAPAN2 (PDAC) cells (ABC <LLOD) [2]: > 100 nM
cytotoxicity IC50 of the negative control (no asterisk: isotype control vedotin ADC), LoVo (CRC) cells (ABC <LLOD) [2]: > 100 nM
cytotoxicity IC50 of the negative control (no asterisk: isotype control vedotin ADC), NCI-H508 (CRC) cells [2]: 0.301 nM
cytotoxicity IC50 of the negative control (no asterisk: isotype control vedotin ADC), SW403 (CRC) cells [2]: > 100 nM
cytotoxicity IC50 of the negative control (no asterisk: isotype control vedotin ADC), SW837 (CRC) cells (ABC <LLOD) [2]: > 100 nM

B1: CDH17_vhh_0001 (VHH)
VHH: QVQLQESGGGLVQPGGSTRLSCVSSRTFSYYDMGWFRQAPGKEREFVALLSWNGENAEYSDSVMGRFTVSRGNTQNSVNLQMNNLKPEDTGIYYCAVTHGGARSVRSWGQGTQVTVSS
notes: also called parental VHH-0001
Kd [3]: 27.2 nM

B6: CDH17_vhh_0650 (VHH)
VHH: B1 VHH with N53R, E55N, S60R, H99Y, R103K, S107L
Kd [3]: 2.45 nM

B8: CDH17_vhh_0677 (VHH)
VHH: B1 VHH with N53R, E55N, S62D, H99Y, G101K
Kd [3]: 2.65 nM

B10: CDH17_vhh_0653 (VHH)
VHH: B1 VHH with N53R, E55I, S62T, T68V, H99Y, G101V
Kd [3]: 3.12 nM

B11: CDH17_vhh_0675 (VHH)
VHH: B1 VHH with N53R, E55N, S62T, H99Y, S107A
Kd [3]: 3.89 nM

B12: CDH17_vhh_0949 (VHH)
VHH: B1 VHH with N53R, E55N, S62D, H99Y, G101K, S107L
Kd [3]: 2.01 nM

B16: CDH17_vhh_0670 (VHH)
VHH: B1 VHH with S51D, N53R, E55N, N56Y, H99Y
Kd [3]: 4.53 nM

B17: CDH17_vhh_0672 (VHH)
VHH: B1 VHH with N53R, E55N, M64H, H99Y, S107L
Kd [3]: 3.76 nM

B18: CDH17_vhh_0274 (VHH)
VHH: B1 VHH with N53R, E55N, T68V, H99Y, R103K
Kd [3]: 4.35 nM

B19: CDH17_vhh_0688 (VHH)
VHH: B1 VHH with N53R, E55N, S62D, H99Y, G101N
Kd [3]: 5.43 nM

B21: CDH17_vhh_0945 (VHH)
VHH: B1 VHH with N53R, E55N, M64H, H99Y, G101V, S107L
Kd [3]: 2.15 nM

B22: CDH17_vhh_0259 (VHH)
VHH: B1 VHH with A39Y, N53R, E55N, H99Y
Kd [3]: 4.75 nM

B23: CDH17_vhh_0646 (VHH)
VHH: B1 VHH with N53R, E55N, S60R, H99Y, S107L
Kd [3]: 2.63 nM

B28: CDH17_vhh_0395 (VHH)
VHH: B1 VHH with N53R, E55N, D61E, H99Y
Kd [3]: 5.47 nM

B29: CDH17_vhh_0629 (VHH)
VHH: B1 VHH with S51D, N53R, H99Y
Kd [3]: 4.96 nM

B30: CDH17_vhh_0950 (VHH)
VHH: B1 VHH with N53R, E55N, A57S, M64H, H99Y, S107L
Kd [3]: 3.81 nM

B31: CDH17_vhh_0622 (VHH)
VHH: B1 VHH with R26I, N53R, H99Y
Kd [3]: 2.93 nM

B32: CDH17_vhh_0946 (VHH)
VHH: B1 VHH with N53R, E55N, S62F, H99Y, G101V, S107L
Kd [3]: 2.04 nM

B33: CDH17_vhh_0591 (VHH)
VHH: B1 VHH with N53R, E55N, H99Y, S107L
Kd [3]: 3.21 nM

B38: CDH17_vhh_0651 (VHH)
VHH: B1 VHH with A39Y, N53R, E55N, T68V, H99L, G101V
Kd [3]: 3.71 nM

B39: CDH17_vhh_0632 (VHH)
VHH: B1 VHH with N53R, N56R, H99Y
Kd [3]: 4.9 nM

B40: CDH17_vhh_0263 (VHH)
VHH: B1 VHH with N53R, E55N, N56Y, T68V, H99Y
Kd [3]: 3.94 nM

Continued, values first:

Kd [3]: 4.85 nM
B2: CDH17_vhh_0372 (VHH)
VHH: B1 VHH with S51D, N53R, E55N, H99Y

Kd [3]: 1.81 nM
B3: CDH17_vhh_0951 (VHH)
VHH: B1 VHH with N53R, E55N, S62D, H99Y, G101T, S107L

Kd [3]: 5.01 nM
B4: CDH17_vhh_0587 (VHH)
VHH: B1 VHH with N53R, E55I, H99Y

Kd [3]: 5.14 nM
B5: CDH17_vhh_0262 (VHH)
VHH: B1 VHH with N53R, E55N, S62T, H99Y

Kd [3]: 3.79 nM
B7: CDH17_vhh_0674 (VHH)
VHH: B1 VHH with N53R, E55N, S62T, H99Y, S107K

Kd [3]: 5.08 nM
B9: CDH17_vhh_0267 (VHH)
VHH: B1 VHH with Q38Y, N53R, E55N, S60A, H99Y

Kd [3]: 4.36 nM
B13: CDH17_vhh_0676 (VHH)
VHH: B1 VHH with N53R, E55N, S62D, H99Y, G101T

Kd [3]: 4.85 nM
B14: CDH17_vhh_0613 (VHH)
VHH: B1 VHH with N53R, H99Y

Kd [3]: 4.83 nM
B15: CDH17_vhh_0689 (VHH)
VHH: B1 VHH with N53R, E55N, S62F, H99Y, S107L

Kd [3]: 5.17 nM
B20: CDH17_vhh_0645 (VHH)
VHH: B1 VHH with A39Y, N53R, E55N, N56Y, T68V, H99Y

Kd [3]: 3.32 nM
B24: CDH17_vhh_0644 (VHH)
VHH: B1 VHH with N53R, E55N, S60R, T68V, H99Y, G101V

Kd [3]: 3.3 nM
B25: CDH17_vhh_0652 (VHH)
VHH: B1 VHH with A39Y, N53R, E55N, N56Y, T68V, H99Y, S107L

Kd [3]: 4.94 nM
B26: CDH17_vhh_0173 (VHH)
VHH: B1 VHH with N53R, E55N, S60R, H99Y

Kd [3]: 2.18 nM
B27: CDH17_vhh_0648 (VHH)
VHH: B1 VHH with N53R, E55N, T68V, H99Y, G101V, R103K

Kd [3]: 2.82 nM
B34: CDH17_vhh_0271 (VHH)
VHH: B1 VHH with N53R, E55N, T68V, H99Y, G101V

Kd [3]: 2.61 nM
B35: CDH17_vhh_0952 (VHH)
VHH: B1 VHH with N53R, E55N, S62D, H99Y, G101N, S107L

Kd [3]: 7.59 nM
B36: CDH17_vhh_0156 (BHB156) (VHH)
VHH: B1 VHH with N53R, E55N, H99Y

Kd [3]: 3.94 nM
B37: CDH17_vhh_0948 (VHH)
VHH: B1 VHH with N53R, E55N, S62D, M64H, H99Y, S107L
